Results from patent US20080124780A1, “Hybrid immobilized catalytic system with controlled permeability” (NORTHEASTERN UNIVERSITY, priority 2002, published 2008).

Conditions: not told; for Permeability Coefficient: pH 7.4
From the text: In order to estimate the molecular weight cut-off point of the cross-linked chitosan, a model representing the chitosan layer was developed in which a thin membrane acts as a layer surrounding the alginate core. The permeability coefficients for vitamin B2 (molecular weight 376 daltons) and vitamin B12 (molecular weight 1355 daltons) representing low-molecular weight substrates, and myoglobin (molecular weight 14,000 daltons) representing a high molecular weight substrate, were studied.
Chitosan solution was prepared by dissolving the polymer (750 kDa, 87.6% deacetylation) obtained from Pronova Biopolymers (Raymond, Wash.) in 0.1-M acetic acid to make a 0.75% (w/v) solution. Films were made by pouring 10 ml of the solution into a Petri dish (100×15 mm) and air-drying for up to 48 hours. The resulting films were dipped into a 3.0% (w/v) aqueous sodium tri-polyphosphate (Na-TPP, Sigma Chemical Company, St. Louis, Mo.) solution and kept for 1.5 hours. The cross-linked membranes were washed with distilled water once and stored in PBS at 4° C.
Using a side-by-side diffusion apparatus, the permeability coefficients of vitamin B2, vitamin B12, and myoglobin were determined. Briefly, each apparatus was composed of a donor compartment and a receptor compartment, with a 15-ml capacity. The donor and receptor compartments were separated by the membrane.
The donor compartment was filled with 15 ml of vitamin B2, vitamin B12, or myoglobin solution, and the receptor compartment was filled with 15 ml of phosphate buffered-saline (PBS) pH 7.4. The concentrations of vitamin B2, vitamin B12 and myoglobin were 0.1, 1.0, and 0.1 mg/ml respectively. The receptor compartment was stirred and temperature was controlled in both compartments at 37° C. by a circulating water bath. […] The absorbance values of vitamin B2 at 440 nm, vitamin B12 at 361 nm, and myoglobin at 410 nm were measured using a Shimadzu 160U UV/IV spectrophotometer (Columbia, Md.). The concentration of the diffused compound into the receptor compartment was calculated from calibration curves constructed earlier. […]

Substance	Permeability Coefficient [cm^2/min × 10^6]	permeation through the membrane
vitamin B12	7.46 ± 1.47	
myoglobin	0.34 ± 0.89	permeated at only a low level
